Results published in the RNAGym collection of RNA variant scans (doi:10.7554/elife.80360).

B1: Hairpin Ribozyme (parent)
chain: GUCCUCUUUCACGUGCGCGUGAAAGAGAGAAGUGAACCAGAGAAACACACGUUGUGGUAUAUUACCUGGUA

Variants of: B1
Test: self-cleavage, relative activity (ratio to wild type); higher = more cleavage; co-transcriptional

Variant	self-cleavage
GGCCUCUUUCACGUGCGCGUGAAAGAGAGAAGUGAACCAGAGAAACACACGUUCUGGUAUAUUACCUGGUA	0.155
GGCCUCUUUCACGUGCGCGUGAAAGAGAGAAGUGAACCAGAGAAACACACGUUGUCGUAUAUUACCUGGUA	0.0624
GGCCUCUUUCACGUGCGCGUGAAAGAGAGAAGUGAACCAGAGAAACACACGUUGUUGUAUAUUACCUGGUA	0.0924
GGCCUCUUUCACGUGCGCGUGAAAGAGAGAAGUGAACCAGAGAAACACACGUUGUGUUAUAUUACCUGGUA	0.209
GGCCUCUUUCACGUGCGCGUGAAAGAGAGAAGUGAACCAGAGAAACACACGUUGUGGUAUAUUACCUGAUA	0.109
GGCCUCUUUCACGUGCGCGUGAAAGAGAGAAGUGAACCAGAGAAACACACGUUGUGGUAUAUUACCUGUUA	0.116
GGCCUCUCUCACGUGCGCGUGAAAGAGAGAAGUGAACCAGAGAAACACACGUUGUGGUAUAUUACCUGGUA	0.255
GGCCUCUUACACGUGCGCGUGAAAGAGAGAAGUGAACCAGAGAAACACACGUUGUGGUAUAUUACCUGGUA	0.242
GGCCUCUUGCACGUGCGCGUGAAAGAGAGAAGUGAACCAGAGAAACACACGUUGUGGUAUAUUACCUGGUA	0.206
GGCCUCUUUCACGAGCGCGUGAAAGAGAGAAGUGAACCAGAGAAACACACGUUGUGGUAUAUUACCUGGUA	0.216
GGCCUCUUUCACGUGCGCGAGAAAGAGAGAAGUGAACCAGAGAAACACACGUUGUGGUAUAUUACCUGGUA	0.225
GGCCUCUUUCACGUGCGCGCGAAAGAGAGAAGUGAACCAGAGAAACACACGUUGUGGUAUAUUACCUGGUA	0.385
GGCCUCUUUCACGUGCGCGGGAAAGAGAGAAGUGAACCAGAGAAACACACGUUGUGGUAUAUUACCUGGUA	0.186
GGCCUCUUUCACGUGCGCGUGAAAGAGAGAAGUGAACCAGAGAAACACACGUAGUGGUAUAUUACCUGGUA	0.195
GGCCUCUUUCACGUGCGCGUGAAAGAGAGAAGUGAACCAGAGAAACACACGUUGUGGAAUAUUACCUGGUA	0.263
GGCCUCUUUCACGUGCGCGUGAAAGAGAGAAGUGAACCAGAGAAACACACGUUGUGGGAUAUUACCUGGUA	0.255
GGCCUCUUUCACGUGCGCGUGAAAGAGAGAAGUGAACCAGAGAAACACACGUUGUGGUAAAUUACCUGGUA	0.402
GGCCUCUUUCACGUGCGCGUGAAAGAGAGAAGUGAACCAGAGAAACACACGUUGUGGUAUACUACCUGGUA	0.0918
GGCCUCUUUCACGUGCGCGUGAAAGAGAGAAGUGAACCAGAGAAACACACGUUGUGGUAUAGUACCUGGUA	0.11
GGCCUCUUUCACGUGCGCGUGAAAGAGAGAAGUGAACCAGAGAAACACACGUUGUGGUAUAUUACCCGGUA	0.102
GUACUCUUUCACGUGCGCGUGAAAGAGAGAAGUGAACCAGAGAAACACACGUUGUGGUAUAUUACCUGGUA	0.714
GUACUCUUUCACGUGCGCGUGCAAGAGAGAAGUGAACCAGAGAAACACACGUUGUGGUAUAUUACCUGGUA	0.593
GUACUCUUUCACGUGCGCGUGAAUGAGAGAAGUGAACCAGAGAAACACACGUUGUGGUAUAUUACCUGGUA	0.703
GUACUCUUUCACGUGCGCGUGAAAGCGAGAAGUGAACCAGAGAAACACACGUUGUGGUAUAUUACCUGGUA	0.402
GUACUCUUUCACGUGCGCGUGAAAGGGAGAAGUGAACCAGAGAAACACACGUUGUGGUAUAUUACCUGGUA	0.736
GUACUCUUUCACGUGCGCGUGAAAGAGCGAAGUGAACCAGAGAAACACACGUUGUGGUAUAUUACCUGGUA	0.648

Variant	self-cleavage
GUACUCUUUCACGUGCGCGUGAAAGAGGGAAGUGAACCAGAGAAACACACGUUGUGGUAUAUUACCUGGUA	0.453
GUACUCUUUCACGUGCGCGUGAAAGAGAGCAGUGAACCAGAGAAACACACGUUGUGGUAUAUUACCUGGUA	0.14
GUACUCUUUCACGUGCGCGUGAAAGAGAGGAGUGAACCAGAGAAACACACGUUGUGGUAUAUUACCUGGUA	0.146
GUACUCUUUCACGUGCGCGUGAAAGAGAGAGGUGAACCAGAGAAACACACGUUGUGGUAUAUUACCUGGUA	0.425
GUACUCUUUCACGUGCGCGUGAAAGAGAGAAGUGGACCAGAGAAACACACGUUGUGGUAUAUUACCUGGUA	0.897
GUACUCUUUCACGUGCGCGUGAAAGAGAGAAGUGUACCAGAGAAACACACGUUGUGGUAUAUUACCUGGUA	0.479
GUACUCUUUCACGUGCGCGUGAAAGAGAGAAGUGACCCAGAGAAACACACGUUGUGGUAUAUUACCUGGUA	0.497
GUACUCUUUCACGUGCGCGUGAAAGAGAGAAGUGAACCCGAGAAACACACGUUGUGGUAUAUUACCUGGUA	0.328
GUACUCUUUCACGUGCGCGUGAAAGAGAGAAGUGAACCGGAGAAACACACGUUGUGGUAUAUUACCUGGUA	0.192
GUACUCUUUCACGUGCGCGUGAAAGAGAGAAGUGAACCUGAGAAACACACGUUGUGGUAUAUUACCUGGUA	0.252
GUACUCUUUCACGUGCGCGUGAAAGAGAGAAGUGAACCAGCGAAACACACGUUGUGGUAUAUUACCUGGUA	1.07
GUACUCUUUCACGUGCGCGUGAAAGAGAGAAGUGAACCAGUGAAACACACGUUGUGGUAUAUUACCUGGUA	1.25
GUACUCUUUCACGUGCGCGUGAAAGAGAGAAGUGAACCAGAGCAACACACGUUGUGGUAUAUUACCUGGUA	0.0772
GUACUCUUUCACGUGCGCGUGAAAGAGAGAAGUGAACCAGAGUAACACACGUUGUGGUAUAUUACCUGGUA	0.179
GUACUCUUUCACGUGCGCGUGAAAGAGAGAAGUGAACCAGAGAGACACACGUUGUGGUAUAUUACCUGGUA	0.126
GUACUCUUUCACGUGCGCGUGAAAGAGAGAAGUGAACCAGAGAUACACACGUUGUGGUAUAUUACCUGGUA	0.148
GUACUCUUUCACGUGCGCGUGAAAGAGAGAAGUGAACCAGAGAACCACACGUUGUGGUAUAUUACCUGGUA	0.157
GUACUCUUUCACGUGCGCGUGAAAGAGAGAAGUGAACCAGAGAAGCACACGUUGUGGUAUAUUACCUGGUA	0.197
GUACUCUUUCACGUGCGCGUGAAAGAGAGAAGUGAACCAGAGAAUCACACGUUGUGGUAUAUUACCUGGUA	0.164
GUACUCUUUCACGUGCGCGUGAAAGAGAGAAGUGAACCAGAGAAACGCACGUUGUGGUAUAUUACCUGGUA	0.191
GUACUCUUUCACGUGCGCGUGAAAGAGAGAAGUGAACCAGAGAAACACCCGUUGUGGUAUAUUACCUGGUA	0.164
GUACUCUUUCACGUGCGCGUGAAAGAGAGAAGUGAACCAGAGAAACACACGUUGUGGUCUAUUACCUGGUA	0.121
GUACUCUUUCACGUGCGCGUGAAAGAGAGAAGUGAACCAGAGAAACACACGUUGUGGUGUAUUACCUGGUA	0.0686
GUACUCUUUCACGUGCGCGUGAAAGAGAGAAGUGAACCAGAGAAACACACGUUGUGGUAUUUUACCUGGUA	0.199
GUACUCUUUCACGUGCGCGUGAAAGAGAGAAGUGAACCAGAGAAACACACGUUGUGGUAUAUUCCCUGGUA	0.197
GUACUCUUUCACGUGCGCGUGAAAGAGAGAAGUGAACCAGAGAAACACACGUUGUGGUAUAUUGCCUGGUA	0.54

Variant	self-cleavage
GUACUCUUUCACGUGCGCGUGAAAGAGAGAAGUGAACCAGAGAAACACACGUUGUGGUAUAUUACCUGGUC	1.11
GUACUCUUUCACGUGCGCGUGAAAGAGAGAAGUGAACCAGAGAAACACACGUUGUGGUAUAUUACCUGGUU	0.517
GUAGUCUUUCACGUGCGCGUGAAAGAGAGAAGUGAACCAGAGAAACACACGUUGUGGUAUAUUACCUGGUA	0.359
GUAUUCUUUCACGUGCGCGUGAAAGAGAGAAGUGAACCAGAGAAACACACGUUGUGGUAUAUUACCUGGUA	0.42
GUACUUUUUCACGUGCGCGUGAAAGAGAGAAGUGAACCAGAGAAACACACGUUGUGGUAUAUUACCUGGUA	0.471
GUACUCUUUUACGUGCGCGUGAAAGAGAGAAGUGAACCAGAGAAACACACGUUGUGGUAUAUUACCUGGUA	0.595
GUACUCUUUCAUGUGCGCGUGAAAGAGAGAAGUGAACCAGAGAAACACACGUUGUGGUAUAUUACCUGGUA	0.59
GUACUCUUUCACGUGCGAGUGAAAGAGAGAAGUGAACCAGAGAAACACACGUUGUGGUAUAUUACCUGGUA	0.634
GUACUCUUUCACGUGCGUGUGAAAGAGAGAAGUGAACCAGAGAAACACACGUUGUGGUAUAUUACCUGGUA	0.717
GUACUCUUUCACGUGCGCGUGAAAGAGAGAAGUGAAACAGAGAAACACACGUUGUGGUAUAUUACCUGGUA	0.217
GUACUCUUUCACGUGCGCGUGAAAGAGAGAAGUGAACAAGAGAAACACACGUUGUGGUAUAUUACCUGGUA	0.215
GUACUCUUUCACGUGCGCGUGAAAGAGAGAAGUGAACCAGAGAAAUACACGUUGUGGUAUAUUACCUGGUA	0.111
GUACUCUUUCACGUGCGCGUGAAAGAGAGAAGUGAACCAGAGAAACAGACGUUGUGGUAUAUUACCUGGUA	0.158
GUACUCUUUCACGUGCGCGUGAAAGAGAGAAGUGAACCAGAGAAACAUACGUUGUGGUAUAUUACCUGGUA	0.112
GUACUCUUUCACGUGCGCGUGAAAGAGAGAAGUGAACCAGAGAAACACAGGUUGUGGUAUAUUACCUGGUA	0.199
GUACUCUUUCACGUGCGCGUGAAAGAGAGAAGUGAACCAGAGAAACACACGUUGUGGUAUAUUAUCUGGUA	0.222
GUACUCUUUCACCUGCGCGUGAAAGAGAGAAGUGAACCAGAGAAACACACGUUGUGGUAUAUUACCUGGUA	0.51
GUACUCUUUCACGUGCUCGUGAAAGAGAGAAGUGAACCAGAGAAACACACGUUGUGGUAUAUUACCUGGUA	0.571
GUACUCUUUCACGUGCGCGUGAAACAGAGAAGUGAACCAGAGAAACACACGUUGUGGUAUAUUACCUGGUA	0.202
GUACUCUUUCACGUGCGCGUGAAAGAGAUAAGUGAACCAGAGAAACACACGUUGUGGUAUAUUACCUGGUA	0.0763
GUACUCUUUCACGUGCGCGUGAAAGAGAGAAGUCAACCAGAGAAACACACGUUGUGGUAUAUUACCUGGUA	0.984
GUACUCUUUCACGUGCGCGUGAAAGAGAGAAGUGAACCAAAGAAACACACGUUGUGGUAUAUUACCUGGUA	0.23
GUACUCUUUCACGUGCGCGUGAAAGAGAGAAGUGAACCAGACAAACACACGUUGUGGUAUAUUACCUGGUA	0.214
GUACUCUUUCACGUGCGCGUGAAAGAGAGAAGUGAACCAGAGAAACACACUUUGUGGUAUAUUACCUGGUA	0.792
